Results from publication PMC9482650, “Quantitative fragmentomics allow affinity mapping of interactomes” (Nature Communications, 2022).

T1: RADIL, Q96JH8
T1 sequence (Q96JH8 971-1071, limits assumed, looked up): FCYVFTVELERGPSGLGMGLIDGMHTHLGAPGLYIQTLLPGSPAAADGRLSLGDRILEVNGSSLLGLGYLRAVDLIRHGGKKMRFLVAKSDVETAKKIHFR

T2: PARD3B_1, Q8TEW8
T2 sequence (Q8TEW8 196-299, limits assumed, looked up): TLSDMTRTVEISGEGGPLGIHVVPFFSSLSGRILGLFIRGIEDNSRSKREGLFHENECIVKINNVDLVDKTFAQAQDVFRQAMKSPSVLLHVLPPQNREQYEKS

T3: SNTG2, Q9NY99
T3 sequence (Q9NY99 68-166, limits assumed, looked up): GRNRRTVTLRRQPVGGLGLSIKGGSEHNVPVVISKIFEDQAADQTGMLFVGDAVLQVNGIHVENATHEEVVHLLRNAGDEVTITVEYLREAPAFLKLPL

T4: LIN7B, Q9HAP6
T4 sequence (Q9HAP6 88-185, limits assumed, looked up): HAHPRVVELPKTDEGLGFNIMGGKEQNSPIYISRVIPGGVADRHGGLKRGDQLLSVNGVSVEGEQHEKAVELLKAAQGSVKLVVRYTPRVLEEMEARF

T5: MPP6, Q9NZW5
T5 sequence (Q9NZW5 125-219, limits assumed, looked up): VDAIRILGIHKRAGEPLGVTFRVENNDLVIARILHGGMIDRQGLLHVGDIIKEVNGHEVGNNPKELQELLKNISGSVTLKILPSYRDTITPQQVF

T6: LRRC7, Q96NW7
T6 sequence (Q96NW7 1440-1537, limits assumed, looked up): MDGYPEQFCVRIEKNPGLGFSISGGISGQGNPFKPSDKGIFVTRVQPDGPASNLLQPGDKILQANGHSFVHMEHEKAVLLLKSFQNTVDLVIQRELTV

T7: MPDZ_10, O75970
T7 sequence (O75970 1624-1722, limits assumed, looked up): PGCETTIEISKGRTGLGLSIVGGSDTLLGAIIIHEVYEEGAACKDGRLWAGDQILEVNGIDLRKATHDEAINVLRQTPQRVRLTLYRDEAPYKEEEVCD

T8: SYNJ2BP, P57105
T8 sequence (P57105 8-110, limits assumed, looked up): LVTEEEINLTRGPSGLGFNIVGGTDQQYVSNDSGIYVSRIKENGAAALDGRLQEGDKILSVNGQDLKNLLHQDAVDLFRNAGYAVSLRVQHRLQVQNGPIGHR

T9: DLG3_3, Q92796
T9 sequence (Q92796 374-475, limits assumed, looked up): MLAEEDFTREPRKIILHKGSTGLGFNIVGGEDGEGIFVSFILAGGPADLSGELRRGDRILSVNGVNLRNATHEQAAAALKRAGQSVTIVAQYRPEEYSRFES

T10: APBA3_1, O96018
T10 sequence (O96018 389-490, limits assumed, looked up): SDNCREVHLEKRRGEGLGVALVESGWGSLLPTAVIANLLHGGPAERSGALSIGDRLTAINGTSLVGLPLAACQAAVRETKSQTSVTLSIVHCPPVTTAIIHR


What was measured:
Assay in all cases: holdup assay
Parameters in all cases: key: below the threshold = too weak to quantify, mostly under pKd 3.1 to 4
Settings in all cases: plain residues with an end cap or a label only (N-terminal biotin on a linker: ado-ado)
Inadl_9, Q8NI35 = target: Inadl_9, Q8NI35
Sequence of Inadl_9, Q8NI35 (Q8NI35 1530-1615): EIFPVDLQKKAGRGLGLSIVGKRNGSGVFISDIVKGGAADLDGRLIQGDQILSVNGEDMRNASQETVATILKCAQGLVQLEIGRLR

DLG4_3, P78352 = target: DLG4_3, P78352
Sequence of DLG4_3, P78352 (P78352 306-403): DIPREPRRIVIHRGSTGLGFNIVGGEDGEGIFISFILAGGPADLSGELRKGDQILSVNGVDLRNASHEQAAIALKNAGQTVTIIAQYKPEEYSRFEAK

RADIL, Q96JH8 = target: T1, RADIL, Q96JH8
NOS1, P29475 = target: NOS1, P29475
Sequence of NOS1, P29475 (P29475 9-101): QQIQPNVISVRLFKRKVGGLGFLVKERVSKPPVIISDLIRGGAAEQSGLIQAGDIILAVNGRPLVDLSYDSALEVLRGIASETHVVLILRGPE

MAST1, Q9Y2H9 = target: MAST1, Q9Y2H9
Sequence of MAST1, Q9Y2H9 (Q9Y2H9 962-1065): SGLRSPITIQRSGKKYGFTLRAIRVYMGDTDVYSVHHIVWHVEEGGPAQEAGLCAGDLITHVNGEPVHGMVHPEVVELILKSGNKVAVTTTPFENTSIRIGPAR

NHERF2_2, Q15599 = target: NHERF2_2, Q15599
Sequence of NHERF2_2, Q15599 (Q15599 142-238): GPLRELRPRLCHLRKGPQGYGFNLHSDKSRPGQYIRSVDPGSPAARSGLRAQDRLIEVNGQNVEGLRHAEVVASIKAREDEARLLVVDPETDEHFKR

MAGI1_2, Q96QZ7 = target: MAGI1_2, Q96QZ7
Sequence of MAGI1_2, Q96QZ7 (Q96QZ7 456-580): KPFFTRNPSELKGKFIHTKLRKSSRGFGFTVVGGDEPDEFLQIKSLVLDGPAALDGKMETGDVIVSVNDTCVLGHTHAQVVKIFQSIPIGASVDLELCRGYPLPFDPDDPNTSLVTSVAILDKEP

PARD3B_1, Q8TEW8 = target: T2, PARD3B_1, Q8TEW8
FRMPD3, Q5JV73 = target: FRMPD3, Q5JV73
Sequence of FRMPD3, Q5JV73 (Q5JV73 12-100): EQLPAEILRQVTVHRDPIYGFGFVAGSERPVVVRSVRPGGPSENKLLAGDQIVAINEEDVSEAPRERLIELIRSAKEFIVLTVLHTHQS

TJP2_1, Q9UDY2 = target: TJP2_1, Q9UDY2
Sequence of TJP2_1, Q9UDY2 (Q9UDY2 24-128): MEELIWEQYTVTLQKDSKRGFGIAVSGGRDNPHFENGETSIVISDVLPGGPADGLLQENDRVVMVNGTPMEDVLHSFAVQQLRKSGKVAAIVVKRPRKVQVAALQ

DLG1_3, Q12959 = target: DLG1_3, Q12959
Sequence of DLG1_3, Q12959 (Q12959 457-571): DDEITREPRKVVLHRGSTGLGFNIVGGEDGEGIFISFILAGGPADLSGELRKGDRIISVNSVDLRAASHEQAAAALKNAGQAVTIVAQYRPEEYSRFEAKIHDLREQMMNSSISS

SNTG2, Q9NY99 = target: T3, SNTG2, Q9NY99
LIN7B, Q9HAP6 = target: T4, LIN7B, Q9HAP6
SNX27, Q96L92 = target: SNX27, Q96L92
DLG5_1, Q8TDM6 = target: DLG5_1, Q8TDM6
Sequence of DLG5_1, Q8TDM6 (Q8TDM6 617-713): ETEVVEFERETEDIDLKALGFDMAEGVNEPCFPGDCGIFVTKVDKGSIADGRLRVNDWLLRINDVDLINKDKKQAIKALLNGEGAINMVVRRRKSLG

MPP6, Q9NZW5 = target: T5, MPP6, Q9NZW5
GRASP, Q7Z6J2 = target: GRASP, Q7Z6J2
Sequence of GRASP, Q7Z6J2 (Q7Z6J2 96-193): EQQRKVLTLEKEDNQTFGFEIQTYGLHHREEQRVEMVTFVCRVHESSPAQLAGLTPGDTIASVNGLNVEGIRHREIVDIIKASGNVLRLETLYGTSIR

Inadl_2, Q8NI35 = target: Inadl_2, Q8NI35
Sequence of Inadl_2, Q8NI35 (Q8NI35 238-335): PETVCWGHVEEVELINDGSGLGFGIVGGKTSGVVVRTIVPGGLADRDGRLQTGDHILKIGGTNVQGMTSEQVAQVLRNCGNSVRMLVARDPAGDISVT

NHERF4_1, Q86UT5-2 = target: NHERF4_1, Q86UT5-2
Sequence of NHERF4_1, Q86UT5-2 (Q86UT5 other isoform, or with tags, fused parts or gaps): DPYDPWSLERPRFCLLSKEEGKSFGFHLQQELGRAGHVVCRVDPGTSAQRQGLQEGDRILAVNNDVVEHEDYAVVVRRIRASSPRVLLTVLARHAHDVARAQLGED

IL16_4, Q14005 = target: IL16_4, Q14005
Sequence of IL16_4, Q14005 (Q14005 1229-1329): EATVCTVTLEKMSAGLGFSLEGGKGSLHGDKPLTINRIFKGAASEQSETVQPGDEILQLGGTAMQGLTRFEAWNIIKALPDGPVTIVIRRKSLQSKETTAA

Inadl_6, Q8NI35 = target: Inadl_6, Q8NI35
Sequence of Inadl_6, Q8NI35 (Q8NI35 1058-1167): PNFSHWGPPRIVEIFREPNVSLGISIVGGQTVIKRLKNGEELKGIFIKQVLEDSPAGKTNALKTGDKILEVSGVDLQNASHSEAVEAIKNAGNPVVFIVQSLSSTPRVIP

LRRC7, Q96NW7 = target: T6, LRRC7, Q96NW7
MPDZ_10, O75970 = target: T7, MPDZ_10, O75970
PARD3_3, Q8TEW0 = target: PARD3_3, Q8TEW0
Sequence of PARD3_3, Q8TEW0 (Q8TEW0 582-685): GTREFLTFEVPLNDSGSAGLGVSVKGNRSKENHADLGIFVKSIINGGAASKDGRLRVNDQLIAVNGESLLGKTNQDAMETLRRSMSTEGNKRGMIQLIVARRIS

SYNJ2BP, P57105 = target: T8, SYNJ2BP, P57105
AHNAK1, Q09666 = target: AHNAK1, Q09666
Sequence of AHNAK1, Q09666 (Q09666 4-100): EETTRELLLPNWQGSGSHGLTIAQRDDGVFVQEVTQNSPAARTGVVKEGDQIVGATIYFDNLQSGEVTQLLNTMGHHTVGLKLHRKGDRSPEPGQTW

DLG3_3, Q92796 = target: T9, DLG3_3, Q92796
APBA3_1, O96018 = target: T10, APBA3_1, O96018

| pKd (Inadl_9, Q8NI35) | pKd (DLG4_3, P78352) | pKd (RADIL, Q96JH8) | pKd (NOS1, P29475) | pKd (MAST1, Q9Y2H9) | pKd (NHERF2_2, Q15599) | pKd (MAGI1_2, Q96QZ7) | pKd (PARD3B_1, Q8TEW8) | pKd (FRMPD3, Q5JV73) | pKd (TJP2_1, Q9UDY2) | pKd (DLG1_3, Q12959) | pKd (SNTG2, Q9NY99) | pKd (LIN7B, Q9HAP6) | pKd (SNX27, Q96L92) | pKd (DLG5_1, Q8TDM6) | pKd (MPP6, Q9NZW5) | pKd (GRASP, Q7Z6J2) | pKd (Inadl_2, Q8NI35) | pKd (NHERF4_1, Q86UT5-2) | pKd (IL16_4, Q14005) | also measured | Binder |
| --- | --- | --- | --- | --- | --- | --- | --- | --- | --- | --- | --- | --- | --- | --- | --- | --- | --- | --- | --- | --- | --- |
| below the threshold | 3.86 | 3.73 | below the threshold | 4.5 | below the threshold | 4.85 | below the threshold | below the threshold | 4.58 | below the threshold | below the threshold | below the threshold | below the threshold | below the threshold | 3.59 | 4.18 | below the threshold | 3.62 | below the threshold | pKd (Inadl_6, Q8NI35): below the threshold; pKd (LRRC7, Q96NW7): below the threshold; pKd (MPDZ_10, O75970): below the threshold; pKd (PARD3_3, Q8TEW0): below the threshold; pKd (SYNJ2BP, P57105): 4.48; pKd (AHNAK1, Q09666): below the threshold; pKd (DLG3_3, Q92796): 3.75; pKd (APBA3_1, O96018): below the threshold | PSHPRLQTHV [KIRREL2, Q6UWL6] |
| below the threshold | 3.87 | below the threshold | 4.03 | 5.06 | 4.76 | 4.5 | 4.05 | below the threshold | 3.89 | 3.99 | 4.23 | below the threshold | 4.93 | below the threshold | below the threshold | 4.68 | below the threshold | 4.76 | 3.78 | pKd (Inadl_6, Q8NI35): 3.57; pKd (LRRC7, Q96NW7): below the threshold; pKd (MPDZ_10, O75970): 3.59; pKd (PARD3_3, Q8TEW0): 3.51; pKd (SYNJ2BP, P57105): 4.52; pKd (AHNAK1, Q09666): below the threshold; pKd (DLG3_3, Q92796): 3.85; pKd (APBA3_1, O96018): below the threshold | GIKKITSTAL [RPS6KA3, P51812] |
| below the threshold | below the threshold | below the threshold | 3.71 | 4.27 | 3.71 | below the threshold | 5.1 | below the threshold | 3.56 | 3.93 | below the threshold | 3.74 | below the threshold | 3.59 | below the threshold | below the threshold | below the threshold | 3.78 | below the threshold | pKd (Inadl_6, Q8NI35): below the threshold; pKd (LRRC7, Q96NW7): 3.49; pKd (MPDZ_10, O75970): 3.57; pKd (PARD3_3, Q8TEW0): 3.78; pKd (SYNJ2BP, P57105): 3.52; pKd (AHNAK1, Q09666): below the threshold; pKd (DLG3_3, Q92796): below the threshold; pKd (APBA3_1, O96018): below the threshold | NVYGIESVKI [GRIA2, P42262] |
| below the threshold | below the threshold | below the threshold | 3.86 | below the threshold | below the threshold | below the threshold | below the threshold | below the threshold | below the threshold | below the threshold | below the threshold | 3.7 | below the threshold | below the threshold | below the threshold | below the threshold | below the threshold | 3.51 | 3.5 | pKd (Inadl_6, Q8NI35): below the threshold; pKd (LRRC7, Q96NW7): below the threshold; pKd (MPDZ_10, O75970): 3.68; pKd (PARD3_3, Q8TEW0): below the threshold; pKd (SYNJ2BP, P57105): below the threshold; pKd (AHNAK1, Q09666): below the threshold; pKd (DLG3_3, Q92796): below the threshold; pKd (APBA3_1, O96018): below the threshold | NNNVVKVDSV [MTNR1A, P48039] |
